One may read the stoichiometry N as a count of units in the complex or per binding partner.

Consider one substance from PMC4833862.

The assay deals with CthACC (full-length Chaetomium thermophilum acetyl-CoA carboxylase, 1-2,297) (Chaetomium thermophilum). Nature of the assay: SAXS; 30 mM MOPS pH 7, 200 mM ammonium sulfate, 5% glycerol, 10 mM dithiothreitol; 2.5, 5 and 10 mg/ml, extrapolated to zero concentration.

With “CthACC (full-length Chaetomium thermophilum acetyl-CoA carboxylase, 1-2,297) (enzyme)”, the stoichiometry N is 2.
